These results are taken from patent publication US20250084169A1.

The target in assay [1] is SARS-CoV-2 spike South African Δ3 B.1.351 variant on pseudovirus (RVP-724) (SARS-CoV-2) (UniProt P0DTC2). The assay is described as follows: cell-based or functional assay.
Assay [2] addresses SARS-CoV-2 spike N439K variant on pseudovirus (RVP-703) (SARS-CoV-2) (UniProt P0DTC2). The experiment in a line: cell-based or functional assay.

Values joined by “and” are separate entries in the source; they are usually repeats but may differ in a detail not shown here. Equal values may be shown once.

As to “Imdevimab (biosimilar version) (antibody)”, the EC50 (pM) Neutralization, pseudovirus in assay [1] is 2.48 pM and 2.37 pM. In assay [2], the EC50 (pM) Neutralization, pseudovirus is 2260 pM and 2220 pM; the fold less potent than REGN10933, pseudovirus neutralization turned out to be 1000 fold.
